The values below come from article PMC4024219.

This assay deals with FKBP-caspase-8 (Site-1 mutant) (human) (UniProt Q14790).

Consider “FRB-FLIPL (wt) (from UniProt O15519 188-480)”, for which the activity after heterodimerization (with AP21967), relative to Mature caspase-8 turned out to be 20%.
